T1: Eimeria maxima MIC2 (Eimeria maxima)
T1 construct: Recombinant antigen coated on ELISA wells; also called EmMIC2
T1 chain: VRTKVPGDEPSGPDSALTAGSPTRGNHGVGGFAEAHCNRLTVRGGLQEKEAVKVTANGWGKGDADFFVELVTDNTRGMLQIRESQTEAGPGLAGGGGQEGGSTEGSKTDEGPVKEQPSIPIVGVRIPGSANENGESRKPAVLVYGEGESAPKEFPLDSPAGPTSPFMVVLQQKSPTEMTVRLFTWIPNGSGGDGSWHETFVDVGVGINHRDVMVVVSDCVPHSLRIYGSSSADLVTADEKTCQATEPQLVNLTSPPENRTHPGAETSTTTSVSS

B1: NBX0717 (VHH)
VHH: QVQLQESGGGLVQAGGSLRLSCAASTNIATFTTMGWYRQAPGKERELVATTTPWGATTSYADSVKGRFTISNDNAKNTVNLQMNSLKPEDTAVYYCNAQQDIPTTQTYWGQGTQVTVSS
B2: NBX0707 (VHH)
VHH: QVQLQESGGGLVQAGGSLRLSCAASGSIFSRDTMAWYRQVPGEQRELVAFITNFGGTNHADSVKGRFTISRDNAKNTVYLQMNSLKPEDTAVYYCAAGLVSLRTHTWEYWGQGTQVTVSS
B3: NBX0734 (VHH)
VHH: QVQLQESGGGLVQAGGSLRLSCAASGSIFSRDTMAWYRQVPGEQRELVAYITNFGGTNHADSVKGRFTISRDNAKNTVYLQMNSLKPEETAVYYCAAGLVSLRTHTWEYWGQGTQVTVSS
B4: NBX0714 (VHH)
VHH: QVQLQESGGGLVQAGGSLRLSCAASGSIFSRDTMAWYRQVPGEQRELVAYITNFGGTNHAGSVKGRFTISRDNAKNTVYLQMNSLKPEDTAVYYCAAELVSLRTHTWEYWGQGTQVTVSS
B5: NBX0752 (VHH)
VHH: QVQLQESGGGLVQAGGSLRLSCAASGSIFSRDNMAWYRQVPGEQRELVALITNFGGTNHADSVKGRFTISRDNAKNTVYLQMNSLKPEDTAVYYCAAGLVSLLTHTWEYWGQGTQVTVSS
B6: NBX0731 (VHH)
VHH: QVQLQESGGGLVQPGGSLRVSCAASGFTFSRDTMAWYRQVPGEQRELVAYITNFGGTNHADSVKGRFTISRDNAKNTVYLQMNSLKPEDTAVYYCAAGLVSLRTHTWEYWGQGTQVTVSS
B7: NBX0709 (VHH)
VHH: QVQLQESGGGLVQAGGSLRLSCAASGSIFSRDTMAWYRQVPGEQRELVAYITNFGGTNHADSVKGRFTISRDNAKNTVYLQMNSLKPEDTAVYYCAAGLVSLHTHTWEYWGQGTQVTVSS
B8: NBX0716 (VHH)
VHH: QVQLQESGGGLVQAGGSLSLSCTASGRTFSTFPVAWFRQAPGKEREFVARINWFTTDTYYADSVKGRFTISRDSAKNTVYLQMNALKPEDTAIYYCAAARSNTGTSRFDYWGQGTQVTVSS
B9: NBX0718 (VHH)
VHH: QVQLQESGGGLVQAGGSLRLSCAANGRTFSSYAMAWFRQAPGKEREFVAAVGWSGGRTYYTDSVKGRFTISRDNAKDTVYLQMNSLKPEDTAVYYCAATRGWAQATLLYDYDYWGQGTQVTVSS
B10: NBX0713 (VHH)
VHH: QVQLQESGGGLVQPGGSLRLSCAASGRTFRRNAMGWFRQAPGKAREFVATISWSGNRAYSDSVKGRFTISRDNGKNLVSLQMNSLKPEDTAVYYCAAARERITSTYYTPHVLTDYDAWGQGAQVTVSS
B11: NBX16034 (VHH)
VHH: QVQLQESGGGVVQAGGSLRLSCVASGSDTSVYAMRWWRQVPGKERLLLASITSGGTVRYAESVKGRFTISRDDAKNTLYLQMNSLKTEDTAVYLCNAERVLARQNYWGQGTQVTVSS
B12: NBX16039 (VHH)
VHH: QVQLQQSGGGLVQAGGSLRLSCTTSGIIFSFSLLNVGWYRQAPGKERELVARMSTAGNTYYSTSVKDRFTISRDNGKNTVDLQMNSLNADDTAVYYCNLRRSWAPSDSGFWGQGTQVFVSS
B13: NBX16036 (VHH)
VHH: QVQLQESGGGLVQAGGSLRLSCVALGNIGWINDMGWYRQAPGKERELVARISSAEATNYADAVKGRFTISRDDAKNTVYLQMNSLKPEDTAVYSCHTRRWYDDGYDYDTWGQGTQVTVSS
B14: NBX16043 (VHH)
VHH: QVQLQESGGGLVQAGGSLRLSCAASGIAFSMFDMVWYRQAPGKQRELVASVSDGGSTAYADSVKGRFTISRDNAKKMVYLQMNSLKPEDTAVYYCKAARSWAYGSGYWGQGIQVTVSS
B15: NBX16042 (VHH)
VHH: QVQLQESGGGLVQAGGSLRLSCVASGITFNFNYYVMGWYRQAPGKQRELVARISDGGNTNYADSVKGRFTISRDNTKNTGYLQMNSLKPEDTAIYYCNLRRSWAPADNGHWGQGTQVTVSS
B16: NBX16038 (VHH)
VHH: QVQLQQSGGGLVQSGGSLRLSCTATRSTISGYGGRWYRQAPGKQREFVALLSSGGMTRYADSVMGRFTISRDDIKNTLYLQMNTLKPEDTAVYYCNTFDGAWGQGTQVTVSS
B17: NBX16035 (VHH)
VHH: QVQLQESGGGLVQAGGSLRLSCAASGSIFSINVIGWYRQVPGKERELVANSGSTTKYADSVKGRFTISRDNAKNTVDLQMNSLKPEDTAVYYCNAVVTSRTSLGLRSYVYWGQGTQVTVSS
B18: NBX16041 (VHH)
VHH: QVQLQESGGGLVQAGGSLRLSCAASGSIFSINVIGWYRQAPGKERELVANSGSTTKYADSVKGRFTISRDNAKNTVDLQMNSLKPEDTAVYYCNAVVTSRTSLGLRSYAYWGQGTQVTVSS
B19: NBX16037 (VHH)
VHH: QVQLQQSGGGLVQAGGSLRLSCAASGSIFSINVIGWYRQVPGKERELVAKSDRTTKYADSVKGRFTISRDNAKNTVDLQMNSLKPEDTAVYYCNAVVTSRTSQGLRSYAYWGQGTQVTVSS
B20: NBX16040 (VHH)
VHH: QVQLQESGGGMVQAGGSLRLSCAASGTTITINTMRWYRQPPGKERELVASIVPSGKTYYADSVKGRFTISRDNHKNTMYLQMNSLKPEDTAVYYCNSDGRFRGIGTYWGQGTQVTVSS
B21: NBX16033 (VHH)
VHH: QVQLQESGGGTVQAGGSLRLSCAVSGSTFSSYSMNWYRQGPGNQREWVGGIRSNDSTYYADSVKGRFTISRDNAKNAWNLQMNSLKSEDTAVYYCNFWDGSFNQYWGQGTQVTVSA

T2 sequence (P08515 1-218, tags or fused parts left off): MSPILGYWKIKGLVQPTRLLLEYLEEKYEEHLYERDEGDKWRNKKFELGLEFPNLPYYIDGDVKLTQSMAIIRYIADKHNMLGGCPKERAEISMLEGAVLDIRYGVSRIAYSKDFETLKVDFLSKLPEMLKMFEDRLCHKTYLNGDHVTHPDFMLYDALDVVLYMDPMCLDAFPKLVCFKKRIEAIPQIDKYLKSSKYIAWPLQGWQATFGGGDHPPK

The first test deals with T1, Eimeria maxima MIC2. Put plainly: phage ELISA, antigen-coated wells.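 Also: antigen dissolved in PBS and coated onto wells, with negative-control wells holding PBS alone as the reference.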
Description: Black bars show binding to wells coated with the antigen specified in Tables 1 and 2 dissolved in phosphate-buffered saline (PBS). Grey bars are negative controls that show binding to wells coated with PBS only.
B1: the “binding relative to PBS-coated wells” value is at least 4 times. Regarding B2, the “binding relative to PBS-coated wells” value amounted to 4 times. For B3, the “binding relative to PBS-coated wells” value is at least 4 times. Still for that read-out and setting: with B4 the figure was at least 4 times; with B5, at least 4 times. On the same count and under the same terms, with B6 the figure was at least 4 times. Consider B7, for which the “binding relative to PBS-coated wells” value was at least 4 times. On to B8, for which the “binding relative to PBS-coated wells” value was at least 4 times.

Take B9: the “binding relative to PBS-coated wells” value was at least 4 times.

B10: the “binding relative to PBS-coated wells” value is at least 4 times.

A further test concerns the target T2, GST fusion of the EtAMA1-binding peptide of EtRON2 (Eimeria tenella, UniProt P08515 1-218 = GST).
T2 construct: Expressed in E. coli, purified as the other antigens but without TEV cleavage, so a His tag and TEV site probably remain; also called GST-RON2 peptide
Put plainly: phage ELISA, wells coated with GST-RON2 peptide.
As to B11, the “binding relative to GST-coated wells” value is at least 3 times and the “binding relative to PBS-coated wells” value was at least 4 times. B12: the “binding relative to GST-coated wells” value was at least 3 times and the “binding relative to PBS-coated wells” value is at least 4 times.

Turning to B13, the “binding relative to GST-coated wells” value is at least 3 times and the “binding relative to PBS-coated wells” value is at least 4 times. In the case of B14, the “binding relative to GST-coated wells” value is at least 3 times and the “binding relative to PBS-coated wells” value was at least 4 times. B15: the “binding relative to GST-coated wells” value is at least 3 times and the “binding relative to PBS-coated wells” value was at least 4 times. As for B16, the “binding relative to GST-coated wells” value was at least 3 times and the “binding relative to PBS-coated wells” value was at least 4 times. On the same counts, the results for B17 are at least 3 times and at least 4 times.

With B18, the “binding relative to GST-coated wells” value was at least 3 times and the “binding relative to PBS-coated wells” value is at least 4 times. On the same counts, the results for B19 are at least 3 times and at least 4 times. Take B20: the “binding relative to GST-coated wells” value was at least 3 times and the “binding relative to PBS-coated wells” value was at least 4 times. On the same counts, the results for B21 are at least 3 times and at least 4 times.

Source of the values: patent US20220242941A1 (NOVOBIND LIVESTOCK THERAPEUTICS, published 2022).
